Source: patent US20140087995A1 (published 2014)
Numbered stars: 1 amine (or outer) side, 2 acyl side, 3 side chain; on linkers, the order of the positions; unused ones are H or OH. Bridge positions count the residues as written; N and C are the ends. Side chains are listed from the residue outwards. Ends that are not written are not given here. * marks the point of attachment. C20 diacid = O=C(O)CCCCCCCCCCCCCCCCCCC(=O)*; γGlu = O=C(O)[C@H](CCC(=O)[*:2])N[*:1]

T1: human calcitonin receptor (human, UniProt P30988 25-474)
T1 construct: whole, on cells; Used as cell membranes; also called hCTR; hCT
T1 sequence (looked up): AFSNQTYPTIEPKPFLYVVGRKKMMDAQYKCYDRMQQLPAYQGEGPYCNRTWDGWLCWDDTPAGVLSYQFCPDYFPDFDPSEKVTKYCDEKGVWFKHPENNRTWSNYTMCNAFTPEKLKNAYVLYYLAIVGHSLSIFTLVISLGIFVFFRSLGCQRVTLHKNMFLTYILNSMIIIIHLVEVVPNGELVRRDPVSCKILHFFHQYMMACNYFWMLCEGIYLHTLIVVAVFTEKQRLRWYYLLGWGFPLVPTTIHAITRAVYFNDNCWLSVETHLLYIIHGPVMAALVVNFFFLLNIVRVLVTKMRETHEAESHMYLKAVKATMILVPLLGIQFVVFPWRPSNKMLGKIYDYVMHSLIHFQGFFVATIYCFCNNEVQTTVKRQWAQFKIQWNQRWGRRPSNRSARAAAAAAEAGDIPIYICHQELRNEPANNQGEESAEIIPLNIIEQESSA


Columns and labels:
[1] = biological target: T1, human calcitonin receptor; assay: ratio of hCTR IC50 to hAmylin-R IC50 (reference: human amylin receptor)
Method in brief: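 Competition binding by SPA uses membrane preparations (35 ng/μL final) in pH 7.4 Hepes buffer with 1 mM CaCl2 and 5 mM MgCl₂. Incubation lasts 120 min at 25° C, and IC₅₀ comes from one-site fitting.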

[2] = biological target: T1, human calcitonin receptor; assay: SPA competition on BHK cell membranes, 125I-calcitonin as radioligand (Assay VII)
Method in brief: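 BHK hCTR membranes 35 ng/μL + SPA beads 0.05 mg/well; buffer 50 mM Hepes pH 7.4, 1 mM CaCl2, 5 mM MgCl₂, 0.1% OA, 0.02% Tween20. 120 min, 25° C., shaking. Scintillation count; IC50 by one-site binding competition.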

Row | Binder | Ratio hCT/hAmylin binding [1] | IC50 [2]
1 | K([γGlu-γGlu-C20 diacid])CNTATCATQRLAEFLRHSSPNFGAIPSSTNVGRETY-NH2 (disulfide 2-7; N-terminus assumed; SMILES CC[C@H](C)[C@H](NC(=O)[C@H](C)NC(=O)CNC(=O)[C@H](Cc1ccccc1)NC(=O)[C@H](CC(N)=O)NC(=O)[C@@H]1CCCN1C(=O)[C@H](CO)NC(=O)[C@H](CO)NC(=O)[C@H](Cc1c[nH]cn1)NC(=O)[C@H](CCCNC(=N)N)NC(=O)[C@H](CC(C)C)NC(=O)[C@H](Cc1ccccc1)NC(=O)[C@H](CCC(=O)O)NC(=O)[C@H](C)NC(=O)[C@H](CC(C)C)NC(=O)[C@H](CCCNC(=N)N)NC(=O)[C@H](CCC(N)=O)NC(=O)[C@@H](NC(=O)[C@H](C)NC(=O)[C@@H]1CSSC[C@H](NC(=O)[C@@H](N)CCCCNC(=O)CC[C@H](NC(=O)CC[C@H](NC(=O)CCCCCCCCCCCCCCCCCCC(=O)O)C(=O)O)C(=O)O)C(=O)N[C@@H](CC(N)=O)C(=O)N[C@@H]([C@@H](C)O)C(=O)N[C@@H](C)C(=O)N[C@@H]([C@@H](C)O)C(=O)N1)[C@@H](C)O)C(=O)N1CCC[C@H]1C(=O)N[C@@H](CO)C(=O)N[C@@H](CO)C(=O)N[C@H](C(=O)N[C@@H](CC(N)=O)C(=O)N[C@H](C(=O)NCC(=O)N[C@@H](CCCNC(=N)N)C(=O)N[C@@H](CCC(=O)O)C(=O)N[C@H](C(=O)N[C@@H](Cc1ccc(O)cc1)C(N)=O)[C@@H](C)O)C(C)C)[C@@H](C)O) | 14.7 | 14.1 nM
2 | K([γGlu-γGlu-C20 diacid])CNTATCATQRLAEFLRHSSPNFGAIPSSTNVGHNTY-NH2 (disulfide 2-7; N-terminus assumed; SMILES CC[C@H](C)[C@H](NC(=O)[C@H](C)NC(=O)CNC(=O)[C@H](Cc1ccccc1)NC(=O)[C@H](CC(N)=O)NC(=O)[C@@H]1CCCN1C(=O)[C@H](CO)NC(=O)[C@H](CO)NC(=O)[C@H](Cc1c[nH]cn1)NC(=O)[C@H](CCCNC(=N)N)NC(=O)[C@H](CC(C)C)NC(=O)[C@H](Cc1ccccc1)NC(=O)[C@H](CCC(=O)O)NC(=O)[C@H](C)NC(=O)[C@H](CC(C)C)NC(=O)[C@H](CCCNC(=N)N)NC(=O)[C@H](CCC(N)=O)NC(=O)[C@@H](NC(=O)[C@H](C)NC(=O)[C@@H]1CSSC[C@H](NC(=O)[C@@H](N)CCCCNC(=O)CC[C@H](NC(=O)CC[C@H](NC(=O)CCCCCCCCCCCCCCCCCCC(=O)O)C(=O)O)C(=O)O)C(=O)N[C@@H](CC(N)=O)C(=O)N[C@@H]([C@@H](C)O)C(=O)N[C@@H](C)C(=O)N[C@@H]([C@@H](C)O)C(=O)N1)[C@@H](C)O)C(=O)N1CCC[C@H]1C(=O)N[C@@H](CO)C(=O)N[C@@H](CO)C(=O)N[C@H](C(=O)N[C@@H](CC(N)=O)C(=O)N[C@H](C(=O)NCC(=O)N[C@@H](Cc1c[nH]cn1)C(=O)N[C@@H](CC(N)=O)C(=O)N[C@H](C(=O)N[C@@H](Cc1ccc(O)cc1)C(N)=O)[C@@H](C)O)C(C)C)[C@@H](C)O, also called compound 87) | 35.6 | 22.5 nM
3 | K([γGlu-γGlu-C20 diacid])CNTATCATQRLAEFLRHSSPNFGAIPSSTNVGRNTY-NH2 (disulfide 2-7; N-terminus assumed; SMILES CC[C@H](C)[C@H](NC(=O)[C@H](C)NC(=O)CNC(=O)[C@H](Cc1ccccc1)NC(=O)[C@H](CC(N)=O)NC(=O)[C@@H]1CCCN1C(=O)[C@H](CO)NC(=O)[C@H](CO)NC(=O)[C@H](Cc1c[nH]cn1)NC(=O)[C@H](CCCNC(=N)N)NC(=O)[C@H](CC(C)C)NC(=O)[C@H](Cc1ccccc1)NC(=O)[C@H](CCC(=O)O)NC(=O)[C@H](C)NC(=O)[C@H](CC(C)C)NC(=O)[C@H](CCCNC(=N)N)NC(=O)[C@H](CCC(N)=O)NC(=O)[C@@H](NC(=O)[C@H](C)NC(=O)[C@@H]1CSSC[C@H](NC(=O)[C@@H](N)CCCCNC(=O)CC[C@H](NC(=O)CC[C@H](NC(=O)CCCCCCCCCCCCCCCCCCC(=O)O)C(=O)O)C(=O)O)C(=O)N[C@@H](CC(N)=O)C(=O)N[C@@H]([C@@H](C)O)C(=O)N[C@@H](C)C(=O)N[C@@H]([C@@H](C)O)C(=O)N1)[C@@H](C)O)C(=O)N1CCC[C@H]1C(=O)N[C@@H](CO)C(=O)N[C@@H](CO)C(=O)N[C@H](C(=O)N[C@@H](CC(N)=O)C(=O)N[C@H](C(=O)NCC(=O)N[C@@H](CCCNC(=N)N)C(=O)N[C@@H](CC(N)=O)C(=O)N[C@H](C(=O)N[C@@H](Cc1ccc(O)cc1)C(N)=O)[C@@H](C)O)C(C)C)[C@@H](C)O, also called compound 88) | 46.5 | 34.9 nM
4 | K([γGlu-γGlu-C20 diacid])CNTATCATQRLAEFLRHSSPNFGAIPSSTNVGPRTY-NH2 (disulfide 2-7; N-terminus assumed; SMILES CC[C@H](C)[C@H](NC(=O)[C@H](C)NC(=O)CNC(=O)[C@H](Cc1ccccc1)NC(=O)[C@H](CC(N)=O)NC(=O)[C@@H]1CCCN1C(=O)[C@H](CO)NC(=O)[C@H](CO)NC(=O)[C@H](Cc1c[nH]cn1)NC(=O)[C@H](CCCNC(=N)N)NC(=O)[C@H](CC(C)C)NC(=O)[C@H](Cc1ccccc1)NC(=O)[C@H](CCC(=O)O)NC(=O)[C@H](C)NC(=O)[C@H](CC(C)C)NC(=O)[C@H](CCCNC(=N)N)NC(=O)[C@H](CCC(N)=O)NC(=O)[C@@H](NC(=O)[C@H](C)NC(=O)[C@@H]1CSSC[C@H](NC(=O)[C@@H](N)CCCCNC(=O)CC[C@H](NC(=O)CC[C@H](NC(=O)CCCCCCCCCCCCCCCCCCC(=O)O)C(=O)O)C(=O)O)C(=O)N[C@@H](CC(N)=O)C(=O)N[C@@H]([C@@H](C)O)C(=O)N[C@@H](C)C(=O)N[C@@H]([C@@H](C)O)C(=O)N1)[C@@H](C)O)C(=O)N1CCC[C@H]1C(=O)N[C@@H](CO)C(=O)N[C@@H](CO)C(=O)N[C@H](C(=O)N[C@@H](CC(N)=O)C(=O)N[C@H](C(=O)NCC(=O)N1CCC[C@H]1C(=O)N[C@@H](CCCNC(=N)N)C(=O)N[C@H](C(=O)N[C@@H](Cc1ccc(O)cc1)C(N)=O)[C@@H](C)O)C(C)C)[C@@H](C)O, also called compound 110) | 53.6 | 17.5 nM

Further binders by falling IC50 [2], results first:

Row | Ratio hCT/hAmylin binding [1] | IC50 [2] | Binder
5 | 29.1 | 15.2 nM | K([γGlu-γGlu-C20 diacid])CNTATCATQRLAEFLRHSSPNFGAIPSSTNVGHETY-NH2 (disulfide 2-7; N-terminus assumed; SMILES CC[C@H](C)[C@H](NC(=O)[C@H](C)NC(=O)CNC(=O)[C@H](Cc1ccccc1)NC(=O)[C@H](CC(N)=O)NC(=O)[C@@H]1CCCN1C(=O)[C@H](CO)NC(=O)[C@H](CO)NC(=O)[C@H](Cc1c[nH]cn1)NC(=O)[C@H](CCCNC(=N)N)NC(=O)[C@H](CC(C)C)NC(=O)[C@H](Cc1ccccc1)NC(=O)[C@H](CCC(=O)O)NC(=O)[C@H](C)NC(=O)[C@H](CC(C)C)NC(=O)[C@H](CCCNC(=N)N)NC(=O)[C@H](CCC(N)=O)NC(=O)[C@@H](NC(=O)[C@H](C)NC(=O)[C@@H]1CSSC[C@H](NC(=O)[C@@H](N)CCCCNC(=O)CC[C@H](NC(=O)CC[C@H](NC(=O)CCCCCCCCCCCCCCCCCCC(=O)O)C(=O)O)C(=O)O)C(=O)N[C@@H](CC(N)=O)C(=O)N[C@@H]([C@@H](C)O)C(=O)N[C@@H](C)C(=O)N[C@@H]([C@@H](C)O)C(=O)N1)[C@@H](C)O)C(=O)N1CCC[C@H]1C(=O)N[C@@H](CO)C(=O)N[C@@H](CO)C(=O)N[C@H](C(=O)N[C@@H](CC(N)=O)C(=O)N[C@H](C(=O)NCC(=O)N[C@@H](Cc1c[nH]cn1)C(=O)N[C@@H](CCC(=O)O)C(=O)N[C@H](C(=O)N[C@@H](Cc1ccc(O)cc1)C(N)=O)[C@@H](C)O)C(C)C)[C@@H](C)O)
6 | 17.6 | 2.13 nM | K([γGlu-γGlu-C20 diacid])CNTATCATQRLAEFLRHSSPNFGAIPSSTNVGPETY-NH2 (disulfide 2-7; N-terminus assumed; SMILES CC[C@H](C)[C@H](NC(=O)[C@H](C)NC(=O)CNC(=O)[C@H](Cc1ccccc1)NC(=O)[C@H](CC(N)=O)NC(=O)[C@@H]1CCCN1C(=O)[C@H](CO)NC(=O)[C@H](CO)NC(=O)[C@H](Cc1c[nH]cn1)NC(=O)[C@H](CCCNC(=N)N)NC(=O)[C@H](CC(C)C)NC(=O)[C@H](Cc1ccccc1)NC(=O)[C@H](CCC(=O)O)NC(=O)[C@H](C)NC(=O)[C@H](CC(C)C)NC(=O)[C@H](CCCNC(=N)N)NC(=O)[C@H](CCC(N)=O)NC(=O)[C@@H](NC(=O)[C@H](C)NC(=O)[C@@H]1CSSC[C@H](NC(=O)[C@@H](N)CCCCNC(=O)CC[C@H](NC(=O)CC[C@H](NC(=O)CCCCCCCCCCCCCCCCCCC(=O)O)C(=O)O)C(=O)O)C(=O)N[C@@H](CC(N)=O)C(=O)N[C@@H]([C@@H](C)O)C(=O)N[C@@H](C)C(=O)N[C@@H]([C@@H](C)O)C(=O)N1)[C@@H](C)O)C(=O)N1CCC[C@H]1C(=O)N[C@@H](CO)C(=O)N[C@@H](CO)C(=O)N[C@H](C(=O)N[C@@H](CC(N)=O)C(=O)N[C@H](C(=O)NCC(=O)N1CCC[C@H]1C(=O)N[C@@H](CCC(=O)O)C(=O)N[C@H](C(=O)N[C@@H](Cc1ccc(O)cc1)C(N)=O)[C@@H](C)O)C(C)C)[C@@H](C)O)
